Our source for the Kd and IC50 values is patent publication US20070161783A1 (published 2007).

For assay [1], the target named is H3.77_L3 I332E/H268E Hybrid.
The target in assay [2] is H3.77_L3 S239D/H268E Hybrid.
The target of assay [3] is H3.77_L3 S239D/I332E Hybrid.
In assay [4] the target is H3.77_L3 I332E/G236A Hybrid.
Assay [5] has as its target H3.77_L3 S239D/I332E/G236A Hybrid.
Assay [6] has as its target H3.77_L3 I332E/H268E/G236A Hybrid.
In assay [7] the target is H3.77_L3 WT Hybrid.
For assay [8], the target named is H3.77_L3 S239D/I332E/A330Y Hybrid.
Assay [9] addresses H3L1. Put plainly: SPR.
Assay [10] addresses H1L1. Put plainly: SPR. (SPR reads the build-up and loss of mass on a sensor chip optically.)
The target of assay [11] is H6L4. Put plainly: SPR.
In assay [12] the target is H4L1. Put plainly: SPR.
The target in assay [13] is H2L3. Put plainly: SPR.
Assay [14] addresses H3L3. Put plainly: SPR.
The target in assay [15] is H3L2. Put plainly: SPR.
Assay [16] concerns the target H4L4. Put plainly: SPR.
Assay [17] has as its target H2L4. Put plainly: SPR.
The target of assay [18] is H4L3. Put plainly: SPR.
In assay [19] the target is H6L3. Put plainly: SPR.
In assay [20] the target is H3L4. Put plainly: SPR.
For assay [21], the target named is H1L4. Put plainly: SPR.
The target in assay [22] is H1L3. Put plainly: SPR.
In assay [23] the target is H2L1. Put plainly: SPR.
Assay [24] has as its target FcγRIIIa (158V form) (human, UniProt P08637 17-208). Put plainly: AlphaScreen competition. In general terms: In Alpha technology, singlet oxygen from a donor bead excites a nearby acceptor bead.
The target in assay [25] is T1, extracellular domain of Ep-CAM (UniProt P16422 24-265, DIGylated (sites not given)).
T1 chain: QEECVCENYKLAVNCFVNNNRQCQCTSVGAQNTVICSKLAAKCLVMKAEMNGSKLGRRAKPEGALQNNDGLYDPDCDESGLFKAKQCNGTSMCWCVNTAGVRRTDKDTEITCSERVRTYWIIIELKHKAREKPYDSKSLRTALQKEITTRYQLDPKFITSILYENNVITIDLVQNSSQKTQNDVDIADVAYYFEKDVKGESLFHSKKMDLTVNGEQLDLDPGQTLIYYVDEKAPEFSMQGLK
Put plainly: AlphaScreen competition.

Sequence of FcγRIIIa (158V form) (P08637 17-208 F176V): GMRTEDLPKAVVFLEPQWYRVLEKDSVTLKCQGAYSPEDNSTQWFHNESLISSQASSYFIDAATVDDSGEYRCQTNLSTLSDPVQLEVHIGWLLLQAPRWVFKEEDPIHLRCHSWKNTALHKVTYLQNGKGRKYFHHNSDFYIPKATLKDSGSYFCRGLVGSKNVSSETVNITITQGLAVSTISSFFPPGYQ

B1: FcgRIIb (receptor)
chain: TPAAPPKAVLKLEPQWINVLQEDSVTLTCRGTHSPESDSIQWFHNGNLIPTHTQPSYRFKANNNDSGEYTCQTGQTSLSDPVHLTVLSEWLVLQTPHLEFQEGETIVLRCHSWKDKPLVKVTFFQNGKSKKFSRSDPNFSIPQANHSHSGDYHCTGNIGYTLYSSKPVTITVQAP
Take B1: the Kd in [1] worked out at 0.117 µM; in [2], 0.0815 µM; in assay [3], 0.142 µM; in assay [4] it was 0.557 µM; in assay [5] it was 0.146 µM; in assay [6], 0.154 µM. Also, the figures for the Kd in assay [7] and in assay [8] were 0.635 µM and 0.144 µM, respectively.

B2: R131 FcgRIIa (receptor)
chain: QAAAPPKAVLKLEPPWINVLQEDSVTLTCQGARSPESDSIQWFHNGNLIPTHTQPSYRFKANNNDSGEYTCQTGQTSLSDPVHLTVLSEWLVLQTPHLEFQEGETIMLRCHSWKDKPLVKVTFFQNGKSQKFSRLDPTFSIPQANHSHSGDYHCTGNIGYTLFSSKPVTITVQVPSMGSSSPMG
Turning to B2, the Kd in assay [1] turned out to be 0.0861 µM; in assay [2] it was 0.0427 µM; in [3] it was 0.0789 µM; in [4] it was 0.0544 µM; in assay [5] it was 0.0137 µM; in assay [7], 0.413 µM. The same molecule registered a Kd in [8] of 0.0889 µM.

B3: EpCAM (Fc fusion)
chain: T1 chain
For the molecule B3, the Kd in assay [9] is 0.385 µM; in assay [10] it was 0.0778 µM; in [11] it was 5.2 µM; in [12], 6.6 µM; in assay [13], 0.063 µM; in assay [14] it was 0.292 µM. Also, the Kd in [15] amounted to 0.615 µM; in assay [16] it was 3 µM; in [17], 0.0666 µM; in assay [18] it was 1.31 µM; in assay [19], 4.8 µM; in assay [20], 0.335 µM. Besides, the Kd in assay [21] amounted to 0.0589 µM; in [22] it was 0.0541 µM; in assay [23], 0.0754 µM.

B4: 17-1A H0 (antibody)
chain: QVQLQQSGAELVRPGTSVKVSCKASGYAFTNYLIEWVKQRPGQGLEWIGVINPGSGGTNYNEKFKGKATLTADKSSSTAYMQLSSLTSDDSAVYFCARDGPWFAYWGQGTLVTVSA
In the case of B4, the IC50 in assay [24] is 0.0327 µM; in assay [25], 0.333 µM.

For orientation: Kd means the concentration at which binding is half-saturated. One may read the IC50 as the midpoint of a concentration-inhibition curve. Higher therefore signals weaker potency.
